Laboratory results reported in patent EP3766512A1 (Universität Zürich, dated 2021).

What was measured:
Experiment in all cases: Protein G affinity chromatography bead
human IL-12Fc NAE = target: T1, human IL-12Fc NAE (human, UniProt P29460 23-328; P29459 23-219)
T1 construct: not shown: linker between p40 and p35 of single chain IL-12 not described; junction or linker between IL-12 and Fc not described

human IL-12Fc NAH = target: T2, human IL-12Fc NAH (human, UniProt P29460 23-328; P29459 23-219)
T2 construct: not shown: linker between p40 and p35 of single chain IL-12 not described; junction or linker between IL-12 and Fc not described
T2 sequence (P29460 other isoform, or with tags, fused parts or gaps): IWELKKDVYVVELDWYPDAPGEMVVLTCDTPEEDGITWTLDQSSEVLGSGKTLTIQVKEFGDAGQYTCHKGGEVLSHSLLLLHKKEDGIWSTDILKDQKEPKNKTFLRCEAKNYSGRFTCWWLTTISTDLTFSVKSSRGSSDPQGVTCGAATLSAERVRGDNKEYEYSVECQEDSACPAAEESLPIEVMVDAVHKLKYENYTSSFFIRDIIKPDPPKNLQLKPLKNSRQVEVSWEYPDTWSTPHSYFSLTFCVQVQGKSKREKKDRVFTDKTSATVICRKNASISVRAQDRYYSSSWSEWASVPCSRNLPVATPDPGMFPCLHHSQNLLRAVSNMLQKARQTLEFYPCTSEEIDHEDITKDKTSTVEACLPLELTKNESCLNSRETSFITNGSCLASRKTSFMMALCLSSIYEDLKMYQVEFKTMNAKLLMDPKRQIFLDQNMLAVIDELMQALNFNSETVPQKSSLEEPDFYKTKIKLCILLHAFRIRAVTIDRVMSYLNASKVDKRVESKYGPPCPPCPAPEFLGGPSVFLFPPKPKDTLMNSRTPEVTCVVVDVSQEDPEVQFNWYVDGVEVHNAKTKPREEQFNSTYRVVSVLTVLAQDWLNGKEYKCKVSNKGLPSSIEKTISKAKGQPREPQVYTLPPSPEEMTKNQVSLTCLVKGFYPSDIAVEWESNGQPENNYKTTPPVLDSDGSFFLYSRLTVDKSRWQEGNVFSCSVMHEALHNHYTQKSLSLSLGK

human IL-12Fc NAA = target: T3, human IL-12Fc NAA (human, UniProt P29460 23-328; P29459 23-219)
T3 construct: not shown: linker between p40 and p35 of single chain IL-12 not described; junction or linker between IL-12 and Fc not described
T3 sequence (P29460 other isoform, or with tags, fused parts or gaps): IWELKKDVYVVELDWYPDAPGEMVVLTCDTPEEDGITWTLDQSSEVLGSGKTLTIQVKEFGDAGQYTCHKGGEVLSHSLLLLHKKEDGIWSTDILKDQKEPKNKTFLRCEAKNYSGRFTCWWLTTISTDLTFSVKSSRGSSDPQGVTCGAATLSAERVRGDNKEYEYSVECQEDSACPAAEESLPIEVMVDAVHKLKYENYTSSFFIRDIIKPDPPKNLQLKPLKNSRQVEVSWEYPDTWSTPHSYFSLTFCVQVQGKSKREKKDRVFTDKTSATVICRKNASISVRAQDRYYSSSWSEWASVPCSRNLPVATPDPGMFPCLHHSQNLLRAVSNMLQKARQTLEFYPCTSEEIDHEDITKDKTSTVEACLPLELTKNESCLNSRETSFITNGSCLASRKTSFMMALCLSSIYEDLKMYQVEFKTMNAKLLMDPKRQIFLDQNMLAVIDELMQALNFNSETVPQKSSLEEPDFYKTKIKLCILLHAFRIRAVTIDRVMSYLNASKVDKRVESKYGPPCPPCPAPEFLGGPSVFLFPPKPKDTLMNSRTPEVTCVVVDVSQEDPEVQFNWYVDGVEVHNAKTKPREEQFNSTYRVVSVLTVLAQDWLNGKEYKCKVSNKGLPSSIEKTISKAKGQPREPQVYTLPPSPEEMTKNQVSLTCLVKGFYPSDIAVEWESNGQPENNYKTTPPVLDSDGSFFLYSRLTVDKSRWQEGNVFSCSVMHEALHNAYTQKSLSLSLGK

T1 sequence (P29460 other isoform, or with tags, fused parts or gaps): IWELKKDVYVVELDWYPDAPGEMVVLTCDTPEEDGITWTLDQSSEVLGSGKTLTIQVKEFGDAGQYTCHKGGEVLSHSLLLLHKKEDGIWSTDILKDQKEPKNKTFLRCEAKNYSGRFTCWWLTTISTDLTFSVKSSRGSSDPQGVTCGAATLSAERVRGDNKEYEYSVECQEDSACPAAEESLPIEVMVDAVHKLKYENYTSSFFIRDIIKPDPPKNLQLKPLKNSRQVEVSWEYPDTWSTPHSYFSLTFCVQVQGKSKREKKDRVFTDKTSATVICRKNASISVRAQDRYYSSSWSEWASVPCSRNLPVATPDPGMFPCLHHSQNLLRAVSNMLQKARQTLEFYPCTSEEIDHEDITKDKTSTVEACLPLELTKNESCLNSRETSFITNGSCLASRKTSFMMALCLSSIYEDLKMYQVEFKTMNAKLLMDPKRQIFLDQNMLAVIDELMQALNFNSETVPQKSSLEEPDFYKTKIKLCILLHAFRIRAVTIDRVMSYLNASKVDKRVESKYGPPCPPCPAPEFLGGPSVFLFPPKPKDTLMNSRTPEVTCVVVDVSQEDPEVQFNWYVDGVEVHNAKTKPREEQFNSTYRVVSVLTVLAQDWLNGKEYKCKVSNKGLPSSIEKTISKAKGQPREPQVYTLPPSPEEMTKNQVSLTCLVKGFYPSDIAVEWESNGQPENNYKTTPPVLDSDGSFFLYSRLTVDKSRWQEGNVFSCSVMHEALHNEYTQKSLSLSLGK

binding result (human IL-12Fc NAE): no binding
binding result (human IL-12Fc NAH): no binding
binding result (human IL-12Fc NAA): no binding
B1: Protein G (chromatography bead) (other, UniProt P19909 303-497, looked up)
chain: TYKLILNGKTLKGETTTEAVDAATAEKVFKQYANDNGVDGEWTYDDATKTFTVTEKPEVIDASELTPAVTTYKLVINGKTLKGETTTEAVDAATAEKVFKQYANDNGVDGEWTYDDATKTFTVTEKPEVIDASELTPAVTTYKLVINGKTLKGETTTKAVDAETAEKAFKQYANDNGVDGVWTYDDATKTFTVTE
